A short description of this series: soluble on expression in E. coli; label from the status in PepcDB or PDB records.
Turning to “MVKESIPKEGENIKIQSYKHDGNIHRVWSETTILKGTEHVIIGGNDHTLVTESDGRTWITREPAIVYFHSEYWFNVICMFREDGIYYYCNLSSPFACDEEALKYIDYDLDIKVYPNGKYHLLDEDEYEQHMNQMNYPHDIDIILRRNVDILQQWIEQKKGPFAPDFIKVWKERYKKIRDY”, the “soluble on expression in E. coli” value is “not soluble”. Turning to “MGSDKIHHHHHHAVSETISETAWCLDGFERPTGVNPVIKPLPTKFYCPMREDSVAWEESDTFNPAATIYDGKIVVMYRAEDNSAQGIGSRTSRLGYATSTDGIHFERDTKPAFYPAKDNQAENECPGGTEDPRIAMTEDGTYVLLYTQWNRKVPRLAVATSKDLKHWTKFGPAFEKAYNGKFKDEATKSASLVTTLKGDKQVIAKVNGKYFMYWGEKNVYAATSDNLIDWDPLLDENGELLKLFSPRSGYFDSQLTECGPPAILTKDGIVLLYNGKNEPGEKGDTAYPANSYCAGQALFDVNNPTKLIGRLDKPFLQPTDDFEKSGQYPAGTVFVEGLVYYRNKWYLYYGCADSFVAVAVSDKQLNF”, the “soluble on expression in E. coli” value was “not soluble”. With “MVRIALEGELFKGVTSLLDQADRTAGAEIFSALYELNDPRGLEVRLQAHDHGDPKIRNVVLGNERGKKNGVEVDDADSDNRHNLHAAGVNVTDRILPDGSIPHNKFMVLEENGKPTKVLTGSTNWTSTGLATQTNNTLIIKSPLVAARYKEYWTSVKHFSELGADAPKKLQDPLEHHHHHH” the entry was “not soluble”. The value for “MNFPISTIRIGGWVVVAKNPDDIVAKFYFAKKKLIWEFLFGEPETNTLRLKRKIEIQWNDVSSFEESISSRDETGILKIELKKRPTFFIETNPQAGKHTQWKQLDHDFTGDHASNYRRHTLHFPPGVLQKNLEKLVTDSFWSKLYEVPFPVHESRYFDSGFENNSSRNSHSHTVGFNVNNGPQHHFSQGIGGVGVGEGNFSMANGGWQRNSYSPVNSLNYNTANEFFGMQATPPSSQVVNEHYNTQNDFTGSQFGYHMNQDEIQKILESQAYAVPDTQTKLMSSAMNNVPKYPQAGSCLESMLFWYEHRRRFQQ” was “soluble”. For “SDHGSNEIDRHLTPGASPAYIGINKEKKLLYTANYHTAVLSVFQYSNSGKLALVAQTTHKAESLGPRPEQVDGPHPHFFDETPAGNLVSCDLGNDTVDFYRLENNELKHLAQYKNEAGFGDRHIVFSKDGNYFYVVGELSSQINVVKFNENTWEFEDIATYKTIPEDFTEHNGAAALYITNDGKYIYNSNRGHNSITVFKVNDDHTLSLIQRISTFGDFPRDFNWDETQKYVVAANQNT”, the “soluble on expression in E. coli” value was “soluble”. The value for “MKERILQEIKTRVNRKSWELWFSSFDVKSIEGNKVVFSVGNLFIKEWLEKKYYSVLSKAVKVVLGNDATFEITYEAFEPHSSYSEPLVKKRAVLLTPLNPDYTFENFVVGPGNSFAYHAALEVAKHPGRYNPLFIYGGVGLGKTHLLQSIGNYVVQNEPDLRVMYITSEKFLNDLVDSMKEGKLNEFREKYRKKVDILLIDDVQFLIGKTGVQTELFHTFNELHDSGKQIVICSDREPQKLSEFQDRLVSRFQMGLVAKLEPPDEETRKSIARKMLEIEHGELPEEVLNFVAENVDDNLRRLRGAIIKLLVYKETTGKEVDLKEAILLLKDFIKPNRVKAMDPIDELIEIVAKVTGVPREEILSNSRNVKALTARRIGMYVAKNYLKSSLRTIAEKFNRSHPVVVDSVKKVKDSLLKGNKQLKALIDEVIGEISRRALSGLEHHHHHH” was “soluble”; that for “VPRIRKLVAALHRRGPHRVLRGDLAFAGLPGVVYTPEAGLHLPGVAFGHDWLTGTSRYSGLLEHLASWGIVAAAPDSERGLAPSVLNLAFDLGVALDIVAGVRLGPGKISVHPAKLGLVGHGFGGSAAVFAAAGLTGTHVKSVAAIFPTVTNPAAEQPAATLDVPGLILTAPGDPKTLTSNALGLSRAWDKATLRIVSKARAGGLVEGRRLTKVLGLPGPHRRTQRSVRALLTGYLLYTLGGDKTYRRFADPDLQLPKTDPIDPEAPPITPGEKIVTLLK” was “not soluble”. The value for “MALGETKGIILFTKDFKEKDKLVKIFTESYGKLMFFVKGAHRKNNPLLPAILPFTEAVYIGNFREEGLSFLNSSKEVQPFRNIQQDIFINAYGTYILNLVDAAIEDQHYDPNLFQFTHMALSALNEQKDPEIITNIFEIQLLERFGVRPEWHHCVACGETQGKFDYSSKYSGVLCEKHWHLDEQRYHADPRAIHFIRLFSQVSYEKVQNIQVKEETKKSIRETIDMLYDEYVGLHLKSKKFIDQMKTWENTLKIPPRKKEEK” was “not soluble”.

(Values after the DeepSol protein solubility set.)
